Data: patent US20260250421A1 (BIOCYTOGEN PHARMACEUTICALS BEIJING, published 2026)
Substitutions are numbered along the chain they refer to. Values belong to the binder of their own block, whether it stands above or below them.

Assays:
[1] = target: T1, His-tagged human PTK7 protein (human, UniProt Q13308 31-704); assay: BLI Octet binning on hPTK7-His; competitor 2D11
T1 construct: Bought protein; also called hPTK7-His; not shown: His tag
T1 sequence: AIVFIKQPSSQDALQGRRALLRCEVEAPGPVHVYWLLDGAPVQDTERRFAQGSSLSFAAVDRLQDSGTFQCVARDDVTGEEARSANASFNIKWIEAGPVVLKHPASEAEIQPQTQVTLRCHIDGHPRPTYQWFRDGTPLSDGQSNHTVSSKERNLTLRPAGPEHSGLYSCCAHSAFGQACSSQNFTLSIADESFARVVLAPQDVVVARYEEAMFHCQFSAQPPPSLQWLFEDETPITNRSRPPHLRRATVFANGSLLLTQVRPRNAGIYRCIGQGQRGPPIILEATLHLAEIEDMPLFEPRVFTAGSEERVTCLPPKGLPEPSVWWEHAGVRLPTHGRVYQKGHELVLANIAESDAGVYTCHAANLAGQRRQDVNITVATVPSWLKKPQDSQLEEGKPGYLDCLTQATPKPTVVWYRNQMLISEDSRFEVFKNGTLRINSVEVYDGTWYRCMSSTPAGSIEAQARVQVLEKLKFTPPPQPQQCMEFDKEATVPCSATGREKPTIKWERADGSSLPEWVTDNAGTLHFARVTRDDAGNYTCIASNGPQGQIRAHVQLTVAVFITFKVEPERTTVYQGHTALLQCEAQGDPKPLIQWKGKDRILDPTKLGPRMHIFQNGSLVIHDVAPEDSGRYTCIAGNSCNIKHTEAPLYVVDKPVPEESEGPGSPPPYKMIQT
Procedure: (§1) Relative positions of target protein epitope between a pair of purified anti-PTK7 antibodies were analyzed by Biolayer Interferometry (BLI) using ForteBio Octet system at 30° C. A total of […] purified antibodies were used: 1A7, 1A11, 1F2, 2A5, 2D11, 2F5, 3C4 and 3E6.
(§2) 1×HBS-EP+ buffer (10 mM 4-(2-hydroxyethyl)-1-piperazineethanesulfonic acid (HEPES), 150 mM NaCl, 3 mM ethylenediaminetetraacetic acid (EDTA) and 0.05% P20, pH7.4) diluted from HBS-EP+ buffer (10×) was used as the running buffer throughout the experiment. His-tagged human PTK7 protein was captured at a flow rate of 10 μL/min, and 200 nM of antibody (Analyte 1) was injected at a flow rate of 30 μL/min to bind the ligand. Another antibody (Analyte 2) was injected under the same conditions to determine whether the binding of different antibodies interfered with each other. The binding time was 300 s for each antibody.
(§3) The binding value of each antibody was obtained using Data Analysis HT 12.0. To quantify the interference of one antibody binding to another, a binding ratio was calculated to compare each pair of antibodies. The binding ratio is defined as the binding value of the second antibody (Analyte 2), divided by the binding value of the first antibody (Analyte 1). […] In general, antibody pairs that interfere with each other have the same or overlapping epitopes.

[2] = target: T2, human PTK7 on human cancer cell lines (human, UniProt Q13308 31-1070); assay: flow cytometry, SK-OV-3 cells, Ab 5 ug/mL
T2 construct: Endogenous PTK7 of human tumour cell lines; also called PTK7 on A-431, NCI-H520, NCI-N87, SK-OV-3, BT-20, HCC1954, NCI-H226, NCI-H358, HCT116, PC-3, NCI-H292, NCI-H1975 cells
T2 sequence: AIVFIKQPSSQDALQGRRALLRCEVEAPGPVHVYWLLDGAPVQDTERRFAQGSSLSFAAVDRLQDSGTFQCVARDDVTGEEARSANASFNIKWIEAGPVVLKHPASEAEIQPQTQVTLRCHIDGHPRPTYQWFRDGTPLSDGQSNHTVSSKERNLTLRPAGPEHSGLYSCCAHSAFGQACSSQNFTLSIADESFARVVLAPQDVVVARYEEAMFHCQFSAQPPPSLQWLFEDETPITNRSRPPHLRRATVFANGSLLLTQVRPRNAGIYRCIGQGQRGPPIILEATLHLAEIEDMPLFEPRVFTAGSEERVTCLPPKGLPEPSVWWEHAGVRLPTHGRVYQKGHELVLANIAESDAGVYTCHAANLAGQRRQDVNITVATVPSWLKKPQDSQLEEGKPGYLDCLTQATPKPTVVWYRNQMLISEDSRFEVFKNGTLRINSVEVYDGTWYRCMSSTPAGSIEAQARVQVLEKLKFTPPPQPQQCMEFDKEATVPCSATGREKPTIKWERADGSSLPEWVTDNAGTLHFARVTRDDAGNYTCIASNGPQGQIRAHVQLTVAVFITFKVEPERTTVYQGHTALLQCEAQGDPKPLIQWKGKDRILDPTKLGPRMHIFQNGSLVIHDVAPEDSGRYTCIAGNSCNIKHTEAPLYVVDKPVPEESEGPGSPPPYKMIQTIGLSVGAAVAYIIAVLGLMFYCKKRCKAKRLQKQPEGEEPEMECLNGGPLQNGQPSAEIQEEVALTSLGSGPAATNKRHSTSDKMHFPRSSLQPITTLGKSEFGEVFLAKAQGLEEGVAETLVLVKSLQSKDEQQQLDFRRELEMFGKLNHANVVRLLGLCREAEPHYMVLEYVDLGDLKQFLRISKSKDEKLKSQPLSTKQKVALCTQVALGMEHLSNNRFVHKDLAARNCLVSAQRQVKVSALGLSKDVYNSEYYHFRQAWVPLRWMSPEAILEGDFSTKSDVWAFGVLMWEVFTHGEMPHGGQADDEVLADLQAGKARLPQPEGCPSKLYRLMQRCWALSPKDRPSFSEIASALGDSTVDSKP
Procedure: (§4) The binding activity of anti-PTK7 antibodies to cancer cell lines was verified by flow cytometry. […] Purified anti-PTK7 antibody with a concentration of 5 μg/mL was added to each well and was incubated at 4° C. for 30 minutes. […] The cells were collected, and the mean fluorescence intensity (MFI) was determined. Human IgG1 was used as ISO control.

[3] = target: T1, His-tagged human PTK7 protein; assay: BLI Octet binning on hPTK7-His; competitor 2A5
Procedure: as §1, §2, §3

[4] = target: T2, human PTK7 on human cancer cell lines; assay: flow cytometry, HCT116 cells, Ab 5 ug/mL
Procedure: as §4

[5] = target: T2, human PTK7 on human cancer cell lines; assay: flow cytometry, HCC1954 cells, Ab 5 ug/mL
Procedure: as §4

[6] = target: T2, human PTK7 on human cancer cell lines; assay: flow cytometry, BT-20 cells, Ab 5 ug/mL
Procedure: as §4

[7] = target: T1, His-tagged human PTK7 protein; assay: BLI Octet binning on hPTK7-His; competitor 1A11
Procedure: as §1, §2, §3

B1: 3C4 (antibody, V domains shown)
VH: QVQLEQSRAEVKKPGESLRISCKGSGYSFTSYWISWVRQMPGKGLEWMGRIDPSDSYTNYNPSFQGHVTISADKSISTAYLQWSSLKASDTAMYYCARRDGSYFDFDYWGQGTLVTVSS
VL: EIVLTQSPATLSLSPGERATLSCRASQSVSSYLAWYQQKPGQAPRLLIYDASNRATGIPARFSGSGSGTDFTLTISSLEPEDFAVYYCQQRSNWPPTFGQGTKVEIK
notes: also called anti-PTK7 antibody 3C4
binding ratio [1]: 0.91 | MFI [2]: 304000 | binding ratio [3]: 0.93 | MFI [4]: 230000 | MFI [5]: 187000 | MFI [6]: 148000 | binding ratio [7]: 0.84

B2: 3E6 (antibody, V domains shown)
VH: B1 VH with E5V, Q6E, R8G, K23R, N59K, N61S, S102D
VL: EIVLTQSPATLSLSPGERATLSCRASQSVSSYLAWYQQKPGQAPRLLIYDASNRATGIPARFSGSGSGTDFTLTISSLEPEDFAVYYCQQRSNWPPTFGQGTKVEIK
notes: also called anti-PTK7 antibody 3E6
binding ratio [1]: 0.76 | MFI [2]: 373000 | binding ratio [3]: 0.81 | MFI [4]: 339000 | MFI [5]: 207000 | MFI [6]: 152000 | binding ratio [7]: 0.71

B3: 1A7 (antibody, human IgG1, V domains shown)
VH: QVQLVESGGGVVQPGRSLRLSCAASGFTFSNYGMHWVRQAPGKGLEWVAVIYYDGSNKFYADSVKGRFTISRDNSKNTLYLQMSSLRAEDTAVYYCARDVAPPGSRAEYFHHWGQGTLVTVSS
VL: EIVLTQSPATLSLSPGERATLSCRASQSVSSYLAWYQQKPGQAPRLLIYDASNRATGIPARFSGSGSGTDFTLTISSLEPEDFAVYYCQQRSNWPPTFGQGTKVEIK
notes: also called anti-PTK7 antibody 1A7
binding ratio [1]: 0.1 | MFI [2]: 197000 | binding ratio [3]: 0.1 | MFI [4]: 115000 | MFI [5]: 118000 | MFI [6]: 86200 | binding ratio [7]: 0.74

B6: 2F5 (antibody, V domains shown)
VH: B3 VH with A23V, V50I, F59Y, S84N, P102A, P103A, F110L
VL: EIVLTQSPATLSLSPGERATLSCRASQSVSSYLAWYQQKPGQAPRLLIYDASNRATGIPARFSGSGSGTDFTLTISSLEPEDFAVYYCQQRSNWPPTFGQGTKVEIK
notes: also called anti-PTK7 antibody 2F5
binding ratio [1]: 0.07 | MFI [2]: 178000 | binding ratio [3]: 0.12 | MFI [4]: 133000 | MFI [5]: 121000 | MFI [6]: 83800 | binding ratio [7]: 0.71

Next, values leading:

binding ratio [1]: -0.07 | MFI [2]: 283000 | binding ratio [3]: 0.05 | MFI [4]: 234000 | MFI [5]: 179000 | MFI [6]: 137000 | binding ratio [7]: 0.62
B4: 2A5 (antibody, V domains shown)
VH: B3 VH with E6Q, Y52W, S56R, F59Y, S84N, P103A, H111Q, H112N
VL: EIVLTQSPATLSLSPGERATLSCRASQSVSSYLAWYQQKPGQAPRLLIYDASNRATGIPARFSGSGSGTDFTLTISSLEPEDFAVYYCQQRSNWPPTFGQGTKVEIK
notes: also called anti-PTK7 antibody 2A5

binding ratio [1]: 0.15 | MFI [2]: 371000 | binding ratio [3]: 0.15 | MFI [4]: 287000 | MFI [5]: 211000 | MFI [6]: 172000 | binding ratio [7]: 0.83
B5: 2D11 (antibody, V domains shown)
VH: B3 VH with N31S, Y52F, F59Y, S84N, A92S, P102A, H111Q, H112N
VL: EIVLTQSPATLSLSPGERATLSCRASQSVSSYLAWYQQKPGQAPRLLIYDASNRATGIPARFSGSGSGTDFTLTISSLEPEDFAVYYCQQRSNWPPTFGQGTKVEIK
notes: also called anti-PTK7 antibody 2D11

binding ratio [1]: 0.62 | MFI [2]: 210000 | binding ratio [3]: 0.71 | MFI [4]: 149000 | MFI [5]: 99100 | MFI [6]: 50900 | binding ratio [7]: 0.64
B7: 1F2 (antibody, V domains shown)
VH: QVQLVQSGGGLVQPGGSLRLSCAASGFTFSRYEMNWVRQAPGKGLEWVSYINSIGSAINYADSVKGRFTISRDNAKNSLYLQMRSLRAEDTAVYYCVREDNWNPGYWGQGTLVTVSS
VL: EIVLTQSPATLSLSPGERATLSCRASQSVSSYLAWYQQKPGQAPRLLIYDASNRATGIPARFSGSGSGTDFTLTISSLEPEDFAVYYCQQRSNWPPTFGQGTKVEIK
notes: also called anti-PTK7 antibody 1F2

binding ratio [1]: 0.71 | MFI [2]: 319000 | binding ratio [3]: 0.75 | MFI [4]: 260000 | MFI [5]: 172000 | MFI [6]: 136000 | binding ratio [7]: -0.01
B8: 1A11 (antibody, V domains shown)
VH: QVQLVQSGPGLVKPSETLSLTCTVSGGSINSYYWNWIRQPPGKGLEWIGYIYYSGSTNYNPSLKSRVTISVDTSKNQFSLKLSSVTAADTAVYYCARDPHDYIRGHFDLWGRGTLFTVSS
VL: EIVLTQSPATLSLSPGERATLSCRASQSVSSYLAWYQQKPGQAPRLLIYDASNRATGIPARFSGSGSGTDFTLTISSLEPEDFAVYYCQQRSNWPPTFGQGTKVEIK
notes: also called anti-PTK7 antibody 1A11
